In assay [1] the target is T1, canine PD-1 (on transfected CHO cells) (canine).
T1 construct: also called dPD-1
T1 chain: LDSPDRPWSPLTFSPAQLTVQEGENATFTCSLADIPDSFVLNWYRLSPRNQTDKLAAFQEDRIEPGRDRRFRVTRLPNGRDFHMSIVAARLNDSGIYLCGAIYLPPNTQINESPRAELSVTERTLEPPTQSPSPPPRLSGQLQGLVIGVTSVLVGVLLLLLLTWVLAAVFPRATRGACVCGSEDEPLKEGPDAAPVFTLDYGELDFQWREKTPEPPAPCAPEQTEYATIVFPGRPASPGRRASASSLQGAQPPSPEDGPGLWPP
As to the kind of experiment: flow cytometry blocking assay on CHO cells transiently transfected with canine PD-1; antibody at 0.05 µg/mL; blocked ligand biotin-labeled dPD-L1 (5 µg/ml), detected with Streptavidin-PE. How it is done: (§1) The anti-dPD-1 chimeric antibodies were collected from mouse ascites fluid and purified by chromatography. 25 μl CHO cells transiently transfected with canine PD-1 were added to each well in a plate. The purified antibodies were titrated to the desired final concentrations, and were added to each well at 25 μl per well at 4° C. and incubated for 30 minutes.
(§2) After being washed with phosphate-buffered saline (PBS) twice (1200 rpm, 5 minutes), 50 μl of PE-labeled Streptavidin (Streptavidin-PE) at 1:100 dilution was added into each well, and incubated for 30 minutes at 4° C., followed by PBS wash (1200 rpm, 5 minutes). 20 μl of PBS was added. The signals for PE was detected by flow cytometry (Intellicyt).

For assay [2], the target named is T1, canine PD-1 (on transfected CHO cells). Nature of the assay: flow cytometry blocking assay on CHO cells transiently transfected with canine PD-1; antibody at 0.5 µg/mL; blocked ligand biotin-labeled dPD-L1 (5 µg/ml), detected with Streptavidin-PE. As for the experimental part:
as §1, §2
A general note: Flow cytometry measures light scatter and fluorescence of single cells or particles in a stream.

Assay [3] shares this target. As to the kind of experiment: flow cytometry blocking assay on CHO cells transiently transfected with canine PD-1; antibody at 0.005 µg/mL; blocked ligand biotin-labeled dPD-L1 (5 µg/ml), detected with Streptavidin-PE. As for the experimental part: as §1, §2
Assay [4] has the same target. As to the kind of experiment: flow cytometry blocking assay on CHO cells transiently transfected with canine PD-1; antibody at 5 µg/mL; blocked ligand biotin-labeled dPD-L1 (5 µg/ml), detected with Streptavidin-PE. As for the experimental part: as §1, §2
The target in assay [5] is T2, feline PD-1 (on transfected CHO cells) (feline).
T2 construct: Expressed from a vector that also expresses EGFP; also called cPD-1
T2 chain: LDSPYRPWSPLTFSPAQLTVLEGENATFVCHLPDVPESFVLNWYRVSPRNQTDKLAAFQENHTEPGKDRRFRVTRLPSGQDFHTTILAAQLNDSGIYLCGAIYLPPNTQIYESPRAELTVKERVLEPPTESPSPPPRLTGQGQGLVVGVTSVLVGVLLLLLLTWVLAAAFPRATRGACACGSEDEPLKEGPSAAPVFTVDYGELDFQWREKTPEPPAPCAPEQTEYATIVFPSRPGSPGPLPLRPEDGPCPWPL
As to the kind of experiment: flow cytometry (MFI) on CHO cells with feline PD-1 and EGFP. As for the experimental part:
In FIG. 9, the CHO cells were transfected with an expression vector that expresses feline PD-1 and EGFP. 25 μl purified anti-dPD-1 chimeric antibodies with different concentrations were added to each well. After being washed with PBS (1200 rmp, 5 min) twice, 50 μl of Alexa Fluor 647 labeled anti-dog IgG Fc antibody (anti-dIgG Fc-647) was added into each well at 1:500 dilution, followed by incubating at 4° C. for 30 minutes, and then PBS wash (1200 rmp, 5 min). 30 μl of PBS was then added. […] EC50 were also determined from the data.

Assay [6] concerns the target T1, canine PD-1 (on transfected CHO cells). Nature of the assay: flow cytometry (MFI) on CHO cells with canine PD-1. As for the experimental part: 25 μl CHO cells were added to each well.
30 μl of PBS was then added.

Assay [7] has as its target T3, human PD-1 (on transfected CHO cells) (human, UniProt Q15116 25-288).
T3 construct: also called hPD-1
As to the kind of experiment: flow cytometry on CHO-hPD-1 cells; Anti-dog-IgG Fc-FITC (1:100). How it is done:
After being washed with PBS (1200 rmp, 5 min) twice, FITC labeled anti-dog IgG Fc antibody (anti-dIgG Fc-FITC) was added into each well 1:100 dilution, followed by incubating at 4° C. for 30 minutes, and then PBS wash (1200 rmp, 5 min). The signals for FITC were determined by flow cytometry.

T3 sequence (Q15116 25-288 limits assumed): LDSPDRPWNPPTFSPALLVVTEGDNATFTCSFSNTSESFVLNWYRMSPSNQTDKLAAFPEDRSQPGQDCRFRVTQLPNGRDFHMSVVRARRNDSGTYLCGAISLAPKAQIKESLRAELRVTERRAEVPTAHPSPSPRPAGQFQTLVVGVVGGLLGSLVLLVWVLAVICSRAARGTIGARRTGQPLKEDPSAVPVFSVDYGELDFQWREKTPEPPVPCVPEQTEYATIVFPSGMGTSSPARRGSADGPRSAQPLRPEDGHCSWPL

B1: 1B9-mHvKv-dIgG4 (antibody, V domains shown)
VH: QVQLQQPGAELVRPGASVKLSCKASGYTFTSFWMNWVKLRPEQGLEWIGRVDPYDSETHYNQKFKDKAILTVDKSSSTAYMQLSSLTSEDSAVYYCATQFGFSWLAYWGQGTLVTVSA
VL: not shown
notes: also called 1B9-mHvKv-IgG4; 1B9-mHvKv-dlgG4
For B1, the “percent of cells in the dPD-L1-positive (PE) gate” value (“percent of cells” for short) in assay [1] was determined as 47%; in assay [2], 4.4%; in assay [3], 45.1%; in assay [4], 0.504%.

B2: 4A7-mHvKv-dIgG4 (antibody, V domains shown)
VH: EVQLVESGGDLVKPGGSLKLSCVASGFPFSNFGMSWVRQTPDKRLEWVATISSGSSYSYYSDSVKGRFTISRDNAKNTLFLQMNSLKSEDTAIFYCARGESRFAYWGQGTLVTVSA
VL: DVVITQDELSNPVTSGESVSISCRSNKSLLYEDGQTYLNWFLQRPGQSPQLLIYLMSTRASGVSDRFSGSGSGTDFTLEISEVRAEDVGVYYCQQLIEYPLTFGAGTKLELKR
notes: also called 4A7-mHvKv-IgG4; 4A7-mHvKv-dlgG4
For the molecule B2, the results for the EC50 in assay [5] and in assay [6] were 1.53 nM and 4.81 nM, respectively. Moreover, the “percent of cells” value in assay [1] is 27.1%; in assay [2], 1.7%; in assay [3], 34.1%; in assay [4], 3.37%.

B3: 1D8-mHvKv-dIgG4 (antibody, V domains shown)
VH: EVQLVESGGDLVKPGGSLKLSCAASGFTFNNFGMSWVRQNPDKRLEWVATLSSGSSYTYYSDSVKGRFTISRDNAKNTLYLQMNSLKSEDTAMYYCTRGESRFAYWGQGTLVTVSA
VL: GVVITQDELSNPVTSGESVSISCRSSKSLLYKDGKTYLNWFLQRPGQSPQLLIYLMSTRASGVSDRFSGSGSGTDFTLEISRVKAEDVGVYYCQQLIEYPLTFGAGTKLELKR
notes: also called 1D8-mHvKv-IgG4; 1D8-mHvKv-dlgG4
Regarding B3, the half-maximal effective concentration (EC50) – broadly, the concentration needed to bring the measured effect to its halfway point – in assay [5] is 7.29 nM. Further, in assay [7], the binding result was “no binding (tested: 10 µg/ml)”. In addition, the “percent of cells” value in assay [1] is 18.8%; in assay [2], 0.161%; in assay [3] it was 39.2%; in assay [4], 4.38%.

Values taken from patent US20220324978A1 (BIOCYTOGEN PHARMACEUTICALS BEIJING, published 2022).
